The values that follow come from patent US6413935.

The target in assay [1] is T1, mouse class II IA^b, purified from DB27.4 cells (mouse), P14434.
T1 chain 1: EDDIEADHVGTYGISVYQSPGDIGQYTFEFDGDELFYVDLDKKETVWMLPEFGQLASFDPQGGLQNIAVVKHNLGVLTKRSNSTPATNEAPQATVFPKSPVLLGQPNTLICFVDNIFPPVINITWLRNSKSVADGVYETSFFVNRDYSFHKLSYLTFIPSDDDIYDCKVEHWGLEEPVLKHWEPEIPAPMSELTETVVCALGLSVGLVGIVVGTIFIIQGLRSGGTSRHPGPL
T1 chain 2: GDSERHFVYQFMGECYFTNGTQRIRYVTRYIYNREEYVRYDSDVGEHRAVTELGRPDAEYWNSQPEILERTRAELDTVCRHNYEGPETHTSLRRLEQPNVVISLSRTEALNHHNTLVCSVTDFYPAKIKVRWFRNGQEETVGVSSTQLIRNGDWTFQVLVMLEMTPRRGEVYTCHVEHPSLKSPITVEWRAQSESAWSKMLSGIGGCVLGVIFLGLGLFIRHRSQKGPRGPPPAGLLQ
Description: 125I-peptide inhibition, purified class II.

The target of assay [2] is T2, mouse class II IA^k, purified from CH12 cells (mouse), P01910.
T2 chain 1: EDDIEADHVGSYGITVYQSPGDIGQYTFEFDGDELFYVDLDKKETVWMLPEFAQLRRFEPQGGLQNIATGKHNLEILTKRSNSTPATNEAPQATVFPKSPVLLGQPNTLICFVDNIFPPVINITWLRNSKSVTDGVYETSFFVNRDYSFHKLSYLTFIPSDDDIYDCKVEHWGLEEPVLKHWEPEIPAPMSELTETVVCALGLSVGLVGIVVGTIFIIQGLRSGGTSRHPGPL
T2 chain 2: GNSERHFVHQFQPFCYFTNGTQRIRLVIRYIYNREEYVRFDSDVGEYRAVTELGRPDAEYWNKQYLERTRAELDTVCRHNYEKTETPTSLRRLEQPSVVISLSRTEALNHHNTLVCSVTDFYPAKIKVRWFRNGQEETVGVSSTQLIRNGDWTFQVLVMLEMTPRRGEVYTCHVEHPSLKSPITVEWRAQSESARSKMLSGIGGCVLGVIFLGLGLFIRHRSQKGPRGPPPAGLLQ
Description: 125I-peptide inhibition, purified class II.

In assay [3] the target is mouse class II IE^d, purified from A20 cells (mouse). Description: 125I-peptide inhibition, purified class II.
For assay [4], the target named is T3, HLA-DR4w4 (DRB1*0401), purified from cell line PREISS (human).
T3 chain 1: not shown
T3 chain 2: not shown
The assay is described as follows: competition vs 125I-peptide, purified class II MHC.

Assay [5] deals with T4, HLA-DR5 (DRB1*11011), purified from cell line SWEIG (human).
T4 chain 1: not shown
T4 chain 2: not shown
Description: competition vs 125I-peptide, purified class II MHC.

In assay [6] the target is T5, HLA-DR7 (DRB1*0701), purified from cell line PITOUT (human).
T5 chain 1: not shown
T5 chain 2: not shown
Description: competition vs 125I-peptide, purified class II MHC.

For assay [7], the target named is mouse class II IA^s, purified from LS102.9 cells (mouse). The assay is described as follows: 125I-peptide inhibition, purified class II.
Assay [8] has as its target HLA-DR1 (DRB1*0101), purified from LG2 cells (human). Description: 125I-peptide inhibition, purified class II.
Assay [9] has as its target T6, HLA-DR4w4 (DRB1*0401), purified from PREISS cells (human).
T6 chain 1: not shown
T6 chain 2: not shown
The assay is described as follows: 125I-peptide inhibition, purified class II.

Assay [10] addresses T7, HLA-DR7 (DRB1*0701), purified from PITOUT cells (human).
T7 chain 1: not shown
T7 chain 2: not shown
Description: 125I-peptide inhibition, purified class II.

In assay [11] the target is T8, HLA-DRw53 (DRB4*0101), purified from L257.6 transfected fibroblasts (human).
T8 chain 1: not shown
T8 chain 2: not shown
The assay is described as follows: 125I-peptide inhibition, purified class II.

Assay [12] addresses mouse class II IE^k, purified from CH12 cells (mouse). The assay is described as follows: 125I-peptide inhibition, purified class II.
Assay [13] addresses T9, HLA-DR2w2a (DRB5*0101), purified from L416.3 transfected fibroblasts (human).
T9 chain 1: not shown
T9 chain 2: not shown
Description: 125I-peptide inhibition, purified class II.

Assay [14] deals with T10, HLA-DR3 (DRB1*0301), purified from MAT cells (human).
T10 chain 1: not shown
T10 chain 2: not shown
The assay is described as follows: 125I-peptide inhibition, purified class II.

Assay [15] deals with T11, HLA-DR5 (DRB1*11011), purified from SWEIG cells (human).
T11 chain 1: not shown
T11 chain 2: not shown
The assay is described as follows: 125I-peptide inhibition, purified class II.

The target in assay [16] is T12, HLA-DR2w2a (DRB5*0101), purified from transfected fibroblasts L416.3 (human).
T12 chain 1: not shown
T12 chain 2: not shown
Description: competition vs 125I-peptide, purified class II MHC.

Assay [17] concerns the target T13, HLA-DR3 (DRB1*0301), purified from cell line MAT (human).
T13 chain 1: not shown
T13 chain 2: not shown
Description: competition vs 125I-peptide, purified class II MHC.

Non-standard residues stand in square brackets, D forms with d. No end group written: not given here. Cha = N[C@@H](CC1CCCCC1)C(=O)O; 14 = not defined here

Regarding NTDGSTDYGILQINSR (modifications not checked) [HEL46-61], the results for the IC50 in [1], in [2] and in [3] were 7000 nM, 20 nM and 8500 nM, respectively.
Regarding [dA]K[14]VYAWTLKAA[dA]-NH2 (reading uncertain; also: printed as aK(14)VYAWTLKAAa-NH2) [peptide 965.052, aK(14)…a-NH2], the 50% inhibitory concentration (IC50) in assay [4] came to 0.8 nM; in [5], 6.9 nM; in assay [6] it was 25.5 nM.
Consider [dA]K[14]VYAWTLKAA[dA]-NH2 (reading uncertain; also: printed as aK(14)VYAWTLKAAa-NH2) [peptide 965.051, aK(14)…a-NH2], for which the 50% inhibitory concentration (IC50) is 0.3 nM in [4], 5.7 nM in [5] and 833 nM in assay [6].
In the case of HSLGKWLGHPDKF (modifications not checked) [PLP 139-151], the IC50 in assay [7] was determined as 86 nM.
As to [dA]A[Cha]AAAATLKAA[dA] [760.57], the concentration for half-maximal inhibition (IC50) in [8] was 4.5 nM; in [9] it was 2 nM; in [10], 78 nM; in assay [11], 3300 nM; in assay [2] it was 5260 nM; in [7] it was 120 nM. For the same molecule, in [12], the IC50 was 78 nM.
For [dA]A[Cha]IAAATLKAA[dA] [906.11], the 50% inhibitory concentration (IC50) stood at 0.38 nM in assay [8]; 1.3 nM in [13]; 100 nM in [14]; 2.4 nM in assay [15]; 31 nM in [10]; 41 nM in [11]. For the same molecule, the figures for the IC50 in assay [7], in [3] and in [12] were 98 nM, 13 nM and 14 nM, respectively.
For the molecule [dA]K[14]VAAHTLKAA[dA]-NH2 (reading uncertain; also: printed as aK(14)VAAHTLKAAa-NH2) [peptide 955.15 (as printed), aK(14)…a-NH2], the IC50 in [16] is 5.4 nM; in assay [17], 2500 nM; in [4], 3.2 nM; in [5] it was 29.9 nM.
Regarding [dA]K[14]VKAWTLKAA[dA]-NH2 (reading uncertain; also: printed as aK(14)VKAWTLKAAa-NH2) [peptide 965.021, aK(14)…a-NH2], the IC50 in [17] is 1100 nM; in assay [5] it was 4.1 nM; in [6], 89.3 nM.

By IC50 is commonly meant the point on the concentration scale where inhibition reaches its midpoint. Lower therefore signals greater potency.
